Data as given in patent US20200040048A1 (published 2020).
Bridge positions count the residues as written; N and C are the ends. Square brackets hold non-standard residues; d marks the D form. dPhe(4-CF3) = N[C@H](Cc1ccc(C(F)(F)F)cc1)C(=O)O; R8 = C=CCCCCCC[C@@](C)(N)C(=O)O; R5 = C=CCCC[C@@](C)(N)C(=O)O; hLeu = CC(C)CC[C@H](N)C(=O)O; S5 = C=CCCC[C@](C)(N)C(=O)O; Cou6 = not defined here; Cou8 = not defined here; βAla = NCCC(=O)O

T1: MDMX (40 kD), O15151
T1 chain: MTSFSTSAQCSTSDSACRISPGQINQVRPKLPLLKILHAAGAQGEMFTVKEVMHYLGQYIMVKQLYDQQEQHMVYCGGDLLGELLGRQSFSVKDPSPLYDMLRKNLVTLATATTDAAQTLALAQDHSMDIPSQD

T2: zebrafish MDMX protein (residues 15-129, L46V/V95L) (zebrafish, UniProt Q7ZUW7 15-129)
T2 construct: Purified on Ni-NT agarose, so it probably carries a His tag from pET15b
T2 sequence (looked up): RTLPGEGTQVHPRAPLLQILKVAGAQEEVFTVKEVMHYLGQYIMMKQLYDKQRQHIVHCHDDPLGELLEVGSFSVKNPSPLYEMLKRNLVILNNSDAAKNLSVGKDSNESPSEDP

B1: peptidomimetic macrocycle SP 755 (peptide)
peptide: Ac-[dT][dA][dW][dY][dA][dN][dPhe(4-CF3)][dE][R5][dL][dL][dR][R5][dA]-NH2
modifications: staple 9-13
notes: also called Ac-tawyanf4CF3e$r5llr$r5a-NH2
B2: Ac-QSQQTF%r8NLWRLL%QN-NH2 (peptide)
peptide: QSQQTFANLWRLLAQN
modifications: not fully specified; N-terminal acetyl; C-terminal amide; %r8 at position 7 and % at position 14 are crosslinked alpha-methyl non-natural amino acids forming the i, i+7 aliphatic staple (the token '%' alone is not defined in the filing)

How the values were obtained:
MDMX (40 kD), O15151 = target: T1, MDMX (40 kD), O15151; assay: competitive FP on MDMX, FAM-labeled linear peptide displaced; Ki grade, + = >1000 nM; conditions: remark: other sources report otherwise
MDM2 = target: T3, MDM2 (UniProt Q00987 1-138, limits assumed); assay: competitive FP vs FAM-labeled linear peptide, MDM2 41 kD; grade, scale in paragraph 603
T3 construct: also called MDM2 (41 kD); HDM2
Experimental: Then, diluted solution was further diluted from 100 μM to 10 μM with water (dilution 1:10), and diluted again with FP buffer from 10 μM to 40 nM (dilution 1:250). […] The diluted FAM-labeled peptides were kept in the dark until use.

[1] = target: T2, zebrafish MDMX protein (residues …); assay: X-ray co-crystallography, complex refined to 2.3 Å
Experimental: The solution was allowed to sit overnight at 4° C. before setting up crystallization experiments. […] Cells were allowed to grow an additional 18 hr at 23° C. The protein was purified using Ni-NT Agarose followed by Superdex 75 buffered with 50 mM NaPO₄, pH 8.0, 150 mM NaCl, and 2 mM TCEP, and concentrating to 24 mg/ml. The buffer was exchanged to 20 mM Tris, pH 8.0, 50 mM NaCl, and 2 mM DTT for crystallization experiments. Initial crystals were obtained with the Nextal AMS screen #94, and the final optimized reservoir was 2.6 M AMS, 75 mM Hepes, pH 7.5. Crystals grew routinely as thin plates at 4° C. and were cryo-protected by pulling the crystals through a solution containing concentrated (3.4 M) malonate followed by flash cooling, storage, and shipment in liquid nitrogen.
For data collection, crystals were rotated through 180° in 1° increments using 0.8 second exposure times. […] Molecular replacement with program Molrep (CCP4) was performed with the MDMX component of the structure, and two molecules were identified in the asymmetric unit.

T3 sequence (Q00987 1-138 limits assumed): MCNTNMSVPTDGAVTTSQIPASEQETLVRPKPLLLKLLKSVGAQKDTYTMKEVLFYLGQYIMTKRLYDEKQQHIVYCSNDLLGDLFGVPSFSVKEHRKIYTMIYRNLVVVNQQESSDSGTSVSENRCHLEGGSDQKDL

Row | Binder | Ki (MDMX (40 kD), O15151) [nM] | other results
1 | Cou6-[βAla]LTF[R8]EYWAQ[hLeu][S5]SAA-NH2 (staple 5-12; reading uncertain) [SP446 Cou6BaLTF$r8EYWAQhL$SAA-NH2] | > 1000 | 
2 | Cou8-[βAla]LTF[R8]EYWAQ[hLeu][S5]SAA-NH2 (staple 5-12; reading uncertain) [SP447 Cou8BaLTF$r8EYWAQhL$SAA-NH2] | > 1000 | 
3 | B1 |  | IC50 (MDM2): ≤ 10 nM
4 | B2 |  | binding result [1]: binds
